Test results from US20140314744A1 (NEOTOPE BIOSCIENCES, published 2014).

Biological target: T1, Recombinant human IgG1 Fc (R&D systems) (human, UniProt P01857-1 100-330 = IgG part)
T1 construct: domain: Fc; Negative control surface in the Biacore experiment; also called hIgG1-Fc
Experiment: SPR (Biacore T200)

- binding result: no binding (tested: 5-175 nM)
B1: Recombinant human laminin-α4 (R&D systems) (ligand, UniProt Q16363-2 826-1816, looked up)
chain: QVSMMFDGQSAVEVHSRTSMDDLKAFTSLSLYMKPPVKRPELTETADQFILYLGSKNAKKEYMGLAIKNDNLVYVYNLGTKDVEIPLDSKPVSSWPAYFSIVKIERVGKHGKVFLTVPSLSSTAEEKFIKKGEFSGDDSLLDLDPEDTVFYVGGVPSNFKLPTSLNLPGFVGCLELATLNNDVISLYNFKHIYNMDPSTSVPCARDKLAFTQSRAASYFFDGSGYAVVRDITRRGKFGQVTRFDIEVRTPADNGLILLMVNGSMFFRLEMRNGYLHVFYDFGFSGGPVHLEDTLKKAQINDAKYHEISIIYHNDKKMILVVDRRHVKSMDNEKMKIPFTDIYIGGAPPEILQSRALRAHLPLDINFRGCMKGFQFQKKDFNLLEQTETLGVGYGCPEDSLISRRAYFNGQSFIASIQKISFFDGFEGGFNFRTLQPNGLLFYYASGSDVFSISLDNGTVIMDVKGIKVQSVDKQYNDGLSHFVISSVSPTRYELIVDKSRVGSKNPTKGKIEQTQASEKKFYFGGSPISAQYANFTGCISNAYFTRVDRDVEVEDFQRYTEKVHTSLYECPIESSPLFLLHKKGKNLSKPKASQNKKGGKSKDAPSWDPVALKLPERNTPRNSHCHLSNSPRAIEHAYQYGGTANSRQEFEHLKGDFGAKSQFSIRLRTRSSHGMIFYVSDQEENDFMTLFLAHGRLVYMFNVGHKKLKIRSQEKYNDGLWHDVIFIRERSSGRLVIDGLRVLEESLPPTEATWKIKGPIYLGGVAPGKAVKNVQINSIYSFSGCLSNLQLNGASITSASQTFSVTPCFEGPMETGTYFSTEGGYVVLDESFNIGLKFEIAFEVRPRSSSGTLVHGHSVNGEYLNVHMKNGQVIVKVNNGIRDFSTSVTPKQSLCDGRWHRITVIRDSNVVQLDVDSEVNHVVGPLNPKPIDHREPVFVGGVPESLLTPRLAPSKPFTGCIRHFVIDGHPVSFSKAALVSGAVSINSCPAA
notes: also called laminin 4A chain; laminin A4 (α4) chain
